The target of assay [1] is T1, rat NPRA (rat, UniProt P18910 29-1057).
T1 sequence (looked up): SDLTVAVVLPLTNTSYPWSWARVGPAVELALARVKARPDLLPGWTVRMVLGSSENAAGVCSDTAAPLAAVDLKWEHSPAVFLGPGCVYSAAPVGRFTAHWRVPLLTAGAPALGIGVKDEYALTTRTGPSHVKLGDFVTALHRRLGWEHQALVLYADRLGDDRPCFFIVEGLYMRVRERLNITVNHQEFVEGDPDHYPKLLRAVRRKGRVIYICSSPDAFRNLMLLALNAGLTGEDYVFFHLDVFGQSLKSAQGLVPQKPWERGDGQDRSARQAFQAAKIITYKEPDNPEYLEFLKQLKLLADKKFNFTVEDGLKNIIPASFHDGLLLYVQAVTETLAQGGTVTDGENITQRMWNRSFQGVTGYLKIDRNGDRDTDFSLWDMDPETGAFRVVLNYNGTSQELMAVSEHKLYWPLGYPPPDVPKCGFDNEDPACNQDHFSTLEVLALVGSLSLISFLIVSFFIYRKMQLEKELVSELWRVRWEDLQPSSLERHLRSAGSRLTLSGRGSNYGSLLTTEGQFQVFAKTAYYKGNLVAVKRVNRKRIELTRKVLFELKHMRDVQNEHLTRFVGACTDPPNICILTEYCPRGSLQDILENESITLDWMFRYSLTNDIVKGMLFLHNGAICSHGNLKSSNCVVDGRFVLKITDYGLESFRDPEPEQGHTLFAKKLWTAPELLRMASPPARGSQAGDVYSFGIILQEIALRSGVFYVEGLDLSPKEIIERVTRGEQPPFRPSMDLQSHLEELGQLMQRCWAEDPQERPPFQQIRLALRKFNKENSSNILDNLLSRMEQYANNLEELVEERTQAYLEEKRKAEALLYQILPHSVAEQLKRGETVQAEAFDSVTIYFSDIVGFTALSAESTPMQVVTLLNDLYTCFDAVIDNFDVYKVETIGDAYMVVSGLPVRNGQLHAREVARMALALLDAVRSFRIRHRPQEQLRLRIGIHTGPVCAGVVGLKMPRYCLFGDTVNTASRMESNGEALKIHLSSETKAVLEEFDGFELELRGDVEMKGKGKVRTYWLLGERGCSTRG
The experiment in a line: cell-based or functional assay.

Assay [2] deals with T2, human NPRA (human, UniProt P16066 33-1061).
T2 sequence (looked up): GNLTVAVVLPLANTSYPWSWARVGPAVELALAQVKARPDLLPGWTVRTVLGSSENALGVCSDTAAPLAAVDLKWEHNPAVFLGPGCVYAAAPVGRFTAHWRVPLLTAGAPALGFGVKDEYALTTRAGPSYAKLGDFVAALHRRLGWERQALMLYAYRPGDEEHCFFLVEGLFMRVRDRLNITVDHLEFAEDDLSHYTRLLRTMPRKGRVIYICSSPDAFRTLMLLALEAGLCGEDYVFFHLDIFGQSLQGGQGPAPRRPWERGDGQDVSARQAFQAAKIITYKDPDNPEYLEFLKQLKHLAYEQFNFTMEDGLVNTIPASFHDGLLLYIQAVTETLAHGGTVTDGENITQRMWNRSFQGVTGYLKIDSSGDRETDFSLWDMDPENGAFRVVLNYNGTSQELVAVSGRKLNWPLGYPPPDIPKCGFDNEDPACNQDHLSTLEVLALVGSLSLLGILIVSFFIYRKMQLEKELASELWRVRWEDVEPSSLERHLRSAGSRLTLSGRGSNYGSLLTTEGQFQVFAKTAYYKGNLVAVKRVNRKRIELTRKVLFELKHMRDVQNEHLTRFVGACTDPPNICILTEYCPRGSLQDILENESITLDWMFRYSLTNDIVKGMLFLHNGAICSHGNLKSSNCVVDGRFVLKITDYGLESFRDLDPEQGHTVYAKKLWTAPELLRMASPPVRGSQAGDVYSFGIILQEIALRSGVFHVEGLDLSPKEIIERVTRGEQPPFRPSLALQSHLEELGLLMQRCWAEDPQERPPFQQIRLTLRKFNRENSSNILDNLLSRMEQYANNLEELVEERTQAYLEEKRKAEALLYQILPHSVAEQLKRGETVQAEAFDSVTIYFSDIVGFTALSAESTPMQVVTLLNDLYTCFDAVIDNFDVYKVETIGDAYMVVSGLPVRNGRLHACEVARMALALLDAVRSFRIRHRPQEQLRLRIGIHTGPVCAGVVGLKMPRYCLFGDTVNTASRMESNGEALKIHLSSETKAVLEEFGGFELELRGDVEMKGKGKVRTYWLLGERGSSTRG
As to the kind of experiment: cell-based or functional assay.

This is an account of results in patent US20240174727A1, “LONG-ACTING NATRIURETIC PEPTIDES AND USES THEREOF” (Eli Lilly and Company, priority 2022, published 2024).

Residue numbers refer to the chain shown, from its start. Numbered stars: 1 amine (or outer) side, 2 acyl side, 3 side chain; on linkers, the order of the positions; unused ones are H or OH. Bridge positions count the residues as written; N and C are the ends. Square brackets hold non-standard residues; d marks the D form. * marks the point of attachment. thioacetal = thioacetal linkage between two cysteines (intrachain bond at the bracketed Cys); C20 diacid = O=C(O)CCCCCCCCCCCCCCCCCCC(=O)*; γGlu = O=C(O)[C@H](CCC(=O)[*:2])N[*:1]; βAla = NCCC(=O)O

B1: HOOC-(CH2)18-CO-(γGlu)-EKEKEKGEK-βAla-RSS[CFGKRIDRIGHYSGLGC]PSFRHGSPSSGAPPPS-NH2 (peptide)
peptide: {C20 diacid-γGlu}-EKEKEKGEK[βAla]RSSCFGKRIDRIGHYSGLGCPSFRHGSPSSGAPPPS-NH2
modifications: bridge 14-30 via thioacetal
Consider B1, for which, in assay [1], the “cGMP Assay (EC50, pM) w/BSA, rNPRA” value was 138000 pM and the “cGMP Assay (EC50, pM) w/Casein, rNPRA” value is 1340 pM. In assay [2], the “cGMP Assay (EC50, pM) w/BSA, hNPRA” value was found to be 11600 pM and the “cGMP Assay (EC50, pM) w/Casein, hNPRA” value was found to be 282 pM.

B2: HOOC-(CH2)18-CO-(γGlu)-EKEKEKG-PEG24-EK-βAla-RSS[CFGKRIDRIGHYSGLGC]PSFRHGGKSSGAPPPS-NH2 (peptide)
peptide: EKXRSSCFGKRIDRIGHYSGLGCPSFRHGGKSSGAPPPS
modifications: N-terminus acylated with HOOC-(CH2)18-CO-(γGlu)-; PEG24 after EKEKEKG; βAla; thioacetal linkage between the two bracketed Cys; C-terminal amide
In the case of B2, the “cGMP Assay (EC50, pM) w/BSA, hNPRA” value in assay [2] was determined as 3490 pM.

B3: HOOC-(CH2)18-CO-(γGlu)-EKEKEKG-(AEEA)8-EK-βAla-RSS[CFGKRIDRIGHYSGLGC]PSFRHGSPSSGAPPPS-NH2 (peptide)
peptide: B2 peptide with G30S, K31P
modifications: N-terminus acylated with HOOC-(CH2)18-CO-(γGlu)-; (AEEA)8 after EKEKEKG; βAla; thioacetal linkage between the two bracketed Cys; C-terminal amide
Turning to B3, the “cGMP Assay (EC50, pM) w/Casein, rNPRA” value in assay [1] was 11200 pM. Besides, the “cGMP Assay (EC50, pM) w/Casein, hNPRA” value in assay [2] stood at 497 pM.

B4: HOOC-(CH2)18-CO-(γGlu)-EKEKEKG-(AEEA)6-S-4Pal-RRSS[CFGKRIDRIGHYSGLGC]PSFRHGGKSSGAPPPS-NH2 (peptide)
peptide: B2 peptide with E1S, K2X, X3R
modifications: N-terminus acylated with HOOC-(CH2)18-CO-(γGlu)-; (AEEA)6 after EKEKEKG; 4Pal; thioacetal linkage between the two bracketed Cys; C-terminal amide
Consider B4, for which, in assay [1], the “cGMP Assay (EC50, pM) w/BSA, rNPRA” value was 312000 pM and the “cGMP Assay (EC50, pM) w/Casein, rNPRA” value was 2630 pM. For the same molecule, in assay [2], the “cGMP Assay (EC50, pM) w/BSA, hNPRA” value worked out at 4470 pM and the “cGMP Assay (EC50, pM) w/Casein, hNPRA” value turned out to be 527 pM.

B5: HOOC-(CH2)18-CO-(γGlu)-EKEKEKG-PEG24-S-4Pal-RRSS[CFGKRIDRIGHQSGLGC]PSFRHGGKSSGAPPPS-NH2 (peptide)
peptide: B2 peptide with E1S, K2X, X3R, Y18Q
modifications: N-terminus acylated with HOOC-(CH2)18-CO-(γGlu)-; PEG24 after EKEKEKG; 4Pal; thioacetal linkage between the two bracketed Cys; C-terminal amide
As to B5, in assay [1], the “cGMP Assay (EC50, pM) w/BSA, rNPRA” value is 276000 pM and the “cGMP Assay (EC50, pM) w/Casein, rNPRA” value came to 16800 pM. In assay [2], the “cGMP Assay (EC50, pM) w/BSA, hNPRA” value was 2560 pM and the “cGMP Assay (EC50, pM) w/Casein, hNPRA” value stood at 488 pM.

B6: HOOC-(CH2)18-CO-(γGlu)-EKEKEKG-PEG24-EK-βAla-RSS[CFGKRIDRIGHYSGLGC]PSFRHGSPSSGAPPPS-NH2 (peptide)
peptide: B2 peptide with G30S, K31P
modifications: N-terminus acylated with HOOC-(CH2)18-CO-(γGlu)-; PEG24 after EKEKEKG; βAla; thioacetal linkage between the two bracketed Cys; C-terminal amide
B6: in assay [1], the “cGMP Assay (EC50, pM) w/BSA, rNPRA” value amounted to 187000 pM and the “cGMP Assay (EC50, pM) w/Casein, rNPRA” value was 9630 pM. Besides, in assay [2], the “cGMP Assay (EC50, pM) w/BSA, hNPRA” value is 4330 pM and the “cGMP Assay (EC50, pM) w/Casein, hNPRA” value turned out to be 741 pM.
